For the series, the target named is His-AtSF1(1-562) (Arabidopsis thaliana, UniProt Q9LU44 1-562). Nature of the series: EMSA; 23 C; unlabeled self competitor (10-200x) reduces shift; LightShift Chemiluminescent RNA EMSA kit, 23 C, 30 min, 8% native PAGE; buffer, salt and pH not stated. The settings on record: protein: recombinant; tags: His; label: 3' biotin. A general note: In EMSA bound probe runs differently from free probe, usually more slowly.
Chain of His-AtSF1(1-562) (Q9LU44 1-562): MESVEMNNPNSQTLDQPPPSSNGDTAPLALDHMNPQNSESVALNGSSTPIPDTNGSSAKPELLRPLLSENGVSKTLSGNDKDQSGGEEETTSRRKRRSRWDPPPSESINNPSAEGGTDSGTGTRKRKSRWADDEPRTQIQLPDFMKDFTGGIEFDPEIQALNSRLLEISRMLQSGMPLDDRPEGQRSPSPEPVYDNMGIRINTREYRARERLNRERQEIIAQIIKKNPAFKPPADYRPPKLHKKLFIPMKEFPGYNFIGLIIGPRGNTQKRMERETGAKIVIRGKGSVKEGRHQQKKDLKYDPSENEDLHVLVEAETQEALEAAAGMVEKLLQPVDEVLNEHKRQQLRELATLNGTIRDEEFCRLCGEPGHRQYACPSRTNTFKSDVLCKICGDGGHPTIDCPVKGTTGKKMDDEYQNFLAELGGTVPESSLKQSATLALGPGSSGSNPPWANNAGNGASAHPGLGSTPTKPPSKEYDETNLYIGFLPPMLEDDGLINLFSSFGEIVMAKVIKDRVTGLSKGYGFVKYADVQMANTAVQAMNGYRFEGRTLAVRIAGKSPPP

For UUCUAAUAUUCUUCUGGAUGCGGUUUUUGGUGUUAU (ssRNA) [FLM BP2], the binding result is reported as “binds”.
Then UUCUAAUGCAUUUUUGUUUUAUCU (ssRNA) [FLM BP1], with “binds”.

The record behind these values is PMC7735993, “Role of Arabidopsis Splicing factor SF1 in Temperature-Responsive Alternative Splicing of FLM pre-mRNA”.
